# B1: CPEB3 Ribozyme (parent)
# chain: UAACAGGGGGCCACAGCAGAAGCGUUCACGUCGCAGCCCCUGUCAGAUUCUGGUGAAUCUGCGAAUUCUGCUGUAUAUCUC
# Variants of: B1
# Assay: self-cleavage, relative activity (ratio to wild type); higher = more cleavage; in vitro, sequencing
# Summary of the method: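 Relative activity compares each variant's cleaved/total read fraction with that of the unmutated ribozyme. To get these fractions, barcoded CPEB3 ribozyme libraries from rounds of error-prone PCR were transcribed with T7 RNA polymerase for 5 hours at 37°C and then given 15 min of DNase I treatment before EDTA was added. The RNAs were reverse transcribed with template switching and sequenced on Illumina, and DNA sequencing linked barcodes to variants. A minimum of 5 reads applied, and three batches were averaged.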
row,Variant,self-cleavage
1,C29A U54C,0.45
2,C29A U58C,0.29
3,C29A U60A,0.11
4,C29A U60C,0.2
5,C29A U66C,0.29
6,C29A U67A,0.46
7,C29A U67C,0.11
8,C29A U69C,0.18
9,C29A U69G,0.22
10,C29A U72C,0.31
11,C29A U72G,0.18
12,C29A U74A,0.62
13,C29A U76G,0.42
14,C29A U78A,0.27
15,C29A U78C,0.3
16,C29A U80C,0.54
17,C29G,0.3
18,C29G A35G,0.67
19,C29G A45G,0.29
20,C29G A47G,0.21
21,C29G A56G,0.23

row,Variant,self-cleavage
1,C29G A57G,0.51
2,C29G A64G,0.41
3,C29G A65G,0.27
4,C29G A75G,0.21
5,C29G C34G,0.22
6,C29G C34U,0.08
7,C29G C59A,0.1
8,C29G C59G,0.2
9,C29G C81A,0.3
10,C29G G30A,0.2
11,C29G G33U,0.09
12,C29G G55A,0.16
13,C29G G73A,0.39
14,C29G U31C,0.13
15,C29G U41A,0.33
16,C29G U41C,0.2
17,C29G U41G,0.15
18,C29G U43C,0.3
19,C29G U49A,0.38
20,C29G U54A,0.28
21,C29G U54C,0.24

row,Variant,self-cleavage
1,C29G U58C,0.52
2,C29G U60A,0.29
3,C29G U60C,0.11
4,C29G U67C,0.12
5,C29G U69A,0.13
6,C29G U69C,0.21
7,C29G U69G,0.12
8,C29G U72C,0.26
9,C29G U74C,0.31
10,C29G U78C,0.21
11,C29U,0.51
12,C29U A35C,0.25
13,C29U A35G,1.16
14,C29U A35U,0.22
15,C29U A45G,0.42
16,C29U A45U,0.19
17,C29U A47G,0.55
18,C29U A47U,0.24
19,C29U A56C,0.42
20,C29U A56G,0.38
21,C29U A56U,0.16

row,Variant,self-cleavage
1,C29U A57G,0.41
2,C29U A57U,0.2
3,C29U A64C,0.24
4,C29U A64G,0.23
5,C29U A64U,0.25
6,C29U A65G,0.27
7,C29U A75G,0.46
8,C29U A75U,0.72
9,C29U A77C,0.5
10,C29U A77G,0.61
11,C29U A77U,0.49
12,C29U C32U,0.51
13,C29U C37U,0.34
14,C29U C38U,0.16
15,C29U C39A,0.28
16,C29U C39G,0.22
17,C29U C40U,0.51
18,C29U C44A,0.14
19,C29U C59A,0.24
20,C29U C62G,0.24
21,C29U C62U,0.21

# — the RNAGym collection of RNA variant scans (doi:10.1093/nar/gkz1192)
